Test results taken from patent US20140087995A1 (published 2014).
Numbered stars: 1 amine (or outer) side, 2 acyl side, 3 side chain; on linkers, the order of the positions; unused ones are H or OH. Bridge positions count the residues as written; N and C are the ends. Side chains are listed from the residue outwards. Ends that are not written are not given here. * marks the point of attachment. C20 diacid = O=C(O)CCCCCCCCCCCCCCCCCCC(=O)*; γGlu = O=C(O)[C@H](CCC(=O)[*:2])N[*:1]; AEEA = NCCOCCOCC(=O)O

B1: N^ε1-[(4S)-4-carboxy-4-[[(4S)-4-carboxy-4-(19-carboxynonadecanoylamino)butanoyl]amino]butanoyl]-[Glu14,Arg17,Pro21,Pro27,His34]-h-amylin (peptide)
peptide: K([γGlu-γGlu-C20 diacid])CNTATCATQRLAEFLRHSSPNFGAIPSSTNVGHNTY-NH2
modifications: disulfide 2-7; N-terminus assumed
SMILES: CC[C@H](C)[C@H](NC(=O)[C@H](C)NC(=O)CNC(=O)[C@H](Cc1ccccc1)NC(=O)[C@H](CC(N)=O)NC(=O)[C@@H]1CCCN1C(=O)[C@H](CO)NC(=O)[C@H](CO)NC(=O)[C@H](Cc1c[nH]cn1)NC(=O)[C@H](CCCNC(=N)N)NC(=O)[C@H](CC(C)C)NC(=O)[C@H](Cc1ccccc1)NC(=O)[C@H](CCC(=O)O)NC(=O)[C@H](C)NC(=O)[C@H](CC(C)C)NC(=O)[C@H](CCCNC(=N)N)NC(=O)[C@H](CCC(N)=O)NC(=O)[C@@H](NC(=O)[C@H](C)NC(=O)[C@@H]1CSSC[C@H](NC(=O)[C@@H](N)CCCCNC(=O)CC[C@H](NC(=O)CC[C@H](NC(=O)CCCCCCCCCCCCCCCCCCC(=O)O)C(=O)O)C(=O)O)C(=O)N[C@@H](CC(N)=O)C(=O)N[C@@H]([C@@H](C)O)C(=O)N[C@@H](C)C(=O)N[C@@H]([C@@H](C)O)C(=O)N1)[C@@H](C)O)C(=O)N1CCC[C@H]1C(=O)N[C@@H](CO)C(=O)N[C@@H](CO)C(=O)N[C@H](C(=O)N[C@@H](CC(N)=O)C(=O)N[C@H](C(=O)NCC(=O)N[C@@H](Cc1c[nH]cn1)C(=O)N[C@@H](CC(N)=O)C(=O)N[C@H](C(=O)N[C@@H](Cc1ccc(O)cc1)C(N)=O)[C@@H](C)O)C(C)C)[C@@H](C)O
notes: also called compound 87
B2: N^ε1-[2-[2-[2-(19-carboxynonadecanoylamino)ethoxy]ethoxy]acetyl]-[Arg17,Pro21,Pro27,His34]-h-amylin (peptide)
peptide: K([AEEA-C20 diacid])CNTATCATQRLANFLRHSSPNFGAIPSSTNVGHNTY-NH2
modifications: disulfide 2-7; N-terminus assumed
SMILES: CC[C@H](C)[C@H](NC(=O)[C@H](C)NC(=O)CNC(=O)[C@H](Cc1ccccc1)NC(=O)[C@H](CC(N)=O)NC(=O)[C@@H]1CCCN1C(=O)[C@H](CO)NC(=O)[C@H](CO)NC(=O)[C@H](Cc1c[nH]cn1)NC(=O)[C@H](CCCNC(=N)N)NC(=O)[C@H](CC(C)C)NC(=O)[C@H](Cc1ccccc1)NC(=O)[C@H](CC(N)=O)NC(=O)[C@H](C)NC(=O)[C@H](CC(C)C)NC(=O)[C@H](CCCNC(=N)N)NC(=O)[C@H](CCC(N)=O)NC(=O)[C@@H](NC(=O)[C@H](C)NC(=O)[C@@H]1CSSC[C@H](NC(=O)[C@@H](N)CCCCNC(=O)COCCOCCNC(=O)CCCCCCCCCCCCCCCCCCC(=O)O)C(=O)N[C@@H](CC(N)=O)C(=O)N[C@@H]([C@@H](C)O)C(=O)N[C@@H](C)C(=O)N[C@@H]([C@@H](C)O)C(=O)N1)[C@@H](C)O)C(=O)N1CCC[C@H]1C(=O)N[C@@H](CO)C(=O)N[C@@H](CO)C(=O)N[C@H](C(=O)N[C@@H](CC(N)=O)C(=O)N[C@H](C(=O)NCC(=O)N[C@@H](Cc1c[nH]cn1)C(=O)N[C@@H](CC(N)=O)C(=O)N[C@H](C(=O)N[C@@H](Cc1ccc(O)cc1)C(N)=O)[C@@H](C)O)C(C)C)[C@@H](C)O
notes: also called compound 91
B3: N^ε1-[(4S)-4-carboxy-4-(19-carboxynonadecanoylamino)butanoyl]-[Arg17,Pro21,Pro27]-h-amylin (peptide)
peptide: K([γGlu-C20 diacid])CNTATCATQRLANFLRHSSPNFGAIPSSTNVGSNTY-NH2
modifications: disulfide 2-7; N-terminus assumed
SMILES: CC[C@H](C)[C@H](NC(=O)[C@H](C)NC(=O)CNC(=O)[C@H](Cc1ccccc1)NC(=O)[C@H](CC(N)=O)NC(=O)[C@@H]1CCCN1C(=O)[C@H](CO)NC(=O)[C@H](CO)NC(=O)[C@H](Cc1c[nH]cn1)NC(=O)[C@H](CCCNC(=N)N)NC(=O)[C@H](CC(C)C)NC(=O)[C@H](Cc1ccccc1)NC(=O)[C@H](CC(N)=O)NC(=O)[C@H](C)NC(=O)[C@H](CC(C)C)NC(=O)[C@H](CCCNC(=N)N)NC(=O)[C@H](CCC(N)=O)NC(=O)[C@@H](NC(=O)[C@H](C)NC(=O)[C@@H]1CSSC[C@H](NC(=O)[C@@H](N)CCCCNC(=O)CC[C@H](NC(=O)CCCCCCCCCCCCCCCCCCC(=O)O)C(=O)O)C(=O)N[C@@H](CC(N)=O)C(=O)N[C@@H]([C@@H](C)O)C(=O)N[C@@H](C)C(=O)N[C@@H]([C@@H](C)O)C(=O)N1)[C@@H](C)O)C(=O)N1CCC[C@H]1C(=O)N[C@@H](CO)C(=O)N[C@@H](CO)C(=O)N[C@H](C(=O)N[C@@H](CC(N)=O)C(=O)N[C@H](C(=O)NCC(=O)N[C@@H](CO)C(=O)N[C@@H](CC(N)=O)C(=O)N[C@H](C(=O)N[C@@H](Cc1ccc(O)cc1)C(N)=O)[C@@H](C)O)C(C)C)[C@@H](C)O
notes: Analogue of human amylin; also called compound 48

What was measured:
[1] = target: T1, human calcitonin receptor (human, UniProt P30988 25-474); test: ratio IC50 human calcitonin receptor / IC50 human amylin receptor (reference)
T1 construct: whole, on cells; Membranes of a stably transfected BHK cell line (Assay VII); also called hCTR; hCT
T1 sequence (looked up): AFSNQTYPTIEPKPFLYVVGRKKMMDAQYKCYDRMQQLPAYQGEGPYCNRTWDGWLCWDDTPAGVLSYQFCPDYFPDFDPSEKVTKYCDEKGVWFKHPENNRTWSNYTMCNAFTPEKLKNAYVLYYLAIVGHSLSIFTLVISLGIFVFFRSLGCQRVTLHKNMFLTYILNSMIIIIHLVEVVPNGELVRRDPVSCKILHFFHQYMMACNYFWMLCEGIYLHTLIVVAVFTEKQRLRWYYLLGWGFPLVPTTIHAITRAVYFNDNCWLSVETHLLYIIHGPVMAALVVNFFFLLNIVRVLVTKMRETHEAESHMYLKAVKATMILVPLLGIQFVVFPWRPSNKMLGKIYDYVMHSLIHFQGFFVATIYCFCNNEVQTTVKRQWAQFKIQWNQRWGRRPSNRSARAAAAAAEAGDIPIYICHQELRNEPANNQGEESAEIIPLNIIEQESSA
Protocol: The resulting pellet was resuspended, homogenized and centrifuged (20.000 rpm, 15 min) in a buffer containing 20 mM Na-HEPES and 0.1 mM EDTA (pH 7.4, buffer 2). The resulting pellet was resuspended in buffer 2 and protein concentration was measured (BCA protein Assay, Pierce). The homogenate was kept cold during the whole procedure. The membranes were kept at −80° C. until use. The assay was performed in a 384 well Optiplate (PerkinElmer) in a total volume of 40 ul. Membranes were mixed with SPA beads. Final concentration of membranes 35 ng/μL final and SPA beads was 0.05 mg/well. Test-compounds were dissolved in DMSO and further diluted in assay buffer (50 mM Hepes, pH 7.4, 1 mM CaCl2, 5 mM MgCl₂, 0.1% OA and 0.02% Tween20). […] The final mixture was incubated with shaking at 400 rpm for 120 min at 25° C. prior to centrifugation (1500 rpm, 10 min). Samples were analyzed on TopCounter™ (Packard). The IC₅₀ was calculated using (one site binding competition analysis) GraphPad Prism5 as a measure of receptor affinity.
Membranes were prepared in the following way; the cells were rinsed with PBS and incubated with Versene for approximately 5 min before harvesting. The cells were flushed with PBS and the cell-suspension was centrifuged for 5 min at 1000 rpm. Cells were homogenized (Ultrathurrax) in a buffer containing 20 mM Na-HEPES and 10 mM EDTA (pH 7.4) and centrifuged at 20.000 rpm for 15 min. The resulting pellet was resuspended, homogenized and centrifuged (20.000 rpm, 15 min) in a buffer containing 20 mM Na-HEPES and 0.1 mM EDTA (pH 7.4, buffer 2). The resulting pellet was resuspended in buffer 2 and protein concentration was measured (BCA protein Assay, Pierce). The homogenate was kept cold during the whole procedure. The membranes were kept at −80° C. until use. Assay was performed in a 384 well Optiplate (PerkinElmer) in a total volume of 40 ul. Membranes were mixed with SPA beads.

[2] = target: T2, rat amylin receptor (rat calcitonin receptor + rat RAMP 3) (rat, UniProt P32214 25-516; Q9JJ73 23-147); test: SPA competition with 125I-rat amylin, membranes of BHK cells with rat calcitonin receptor + rat RAMP3 (Assay VI)
T2 construct: whole, on cells; Membranes of transiently transfected BHK tk'ts 13 cells (Assay VI); also called rAmylin-R; rat amylin 3(a) receptor
T2 sequence (looked up) 1: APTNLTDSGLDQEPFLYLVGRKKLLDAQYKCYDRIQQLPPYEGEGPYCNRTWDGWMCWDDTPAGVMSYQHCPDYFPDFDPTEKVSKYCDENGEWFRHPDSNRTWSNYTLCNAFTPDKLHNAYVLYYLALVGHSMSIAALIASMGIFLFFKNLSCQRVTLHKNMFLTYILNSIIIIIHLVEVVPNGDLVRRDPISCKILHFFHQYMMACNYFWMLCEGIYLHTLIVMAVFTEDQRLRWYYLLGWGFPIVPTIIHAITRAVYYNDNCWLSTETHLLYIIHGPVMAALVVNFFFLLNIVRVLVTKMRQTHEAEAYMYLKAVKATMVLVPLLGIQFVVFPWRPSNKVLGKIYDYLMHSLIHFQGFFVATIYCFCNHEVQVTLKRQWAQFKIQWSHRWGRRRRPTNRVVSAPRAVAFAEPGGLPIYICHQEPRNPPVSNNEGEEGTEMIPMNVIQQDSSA
T2 sequence (looked up) 2: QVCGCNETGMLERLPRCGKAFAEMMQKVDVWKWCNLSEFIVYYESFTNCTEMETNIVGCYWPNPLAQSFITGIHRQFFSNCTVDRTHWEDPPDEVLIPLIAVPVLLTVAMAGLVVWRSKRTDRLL

rat calcitonin receptor [3] = target: T3, rat calcitonin receptor (rat, UniProt P32214 25-516); test: SPA competition with 125I-calcitonin, membranes of BHK cells with rat calcitonin receptor (Assay VIII)
T3 construct: whole, on cells; Membranes of transiently transfected BHK tk'ts 13 cells (Assay VIII); also called rCTR
T3 sequence (looked up): T2 sequence (looked up) 1

rat calcitonin receptor [4] = target: T3, rat calcitonin receptor; test: ratio IC50 rat calcitonin receptor / IC50 rat amylin receptor (reference)
rat calcitonin receptor [5] = target: T4, rat calcitonin receptor (rat, UniProt P32214 25-516); test: SPA competition with 125I-calcitonin, membranes of BHK cells with rat CTR (Assay VIII)
T4 construct: whole, on cells; Used as membranes prepared from BHK tk'ts 13 cells transiently transfected with the rat calcitonin receptor (Assay VIII); also called rCTR; rat calcitonin (a) receptor
T4 sequence (looked up): T2 sequence (looked up) 1

[6] = target: T5, human calcitonin receptor (human, UniProt P30988 25-474); test: IC50 on human CTR divided by IC50 on human amylin receptor (Assays VII/V)
T5 construct: whole, on cells; Used as membranes prepared from a BHK tk'ts 13 cell line stably transfected with the human calcitonin receptor (Assay VII); also called hCTR; hCT
T5 sequence (looked up): T1 sequence (looked up)
In short: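 Competition binding by SPA uses membrane preparations (35 ng/μL final) in pH 7.4 Hepes buffer with 1 mM CaCl2 and 5 mM MgCl₂. Incubation lasts 120 min at 25° C, and IC₅₀ comes from one-site fitting.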

[7] = target: T6, rat amylin receptor (rat calcitonin receptor + rat RAMP 3) (rat, UniProt P32214 25-516; Q9JJ73 23-147); test: SPA competition with 125I-rat amylin, membranes of BHK cells with rat CTR + rat RAMP3 (Assay VI)
T6 construct: whole, on cells; Used as membranes prepared from BHK tk'ts 13 cells transiently transfected with rat calcitonin receptor and rat RAMP 3 (Assay VI); also called rAmylin-R; rat amylin 3(a) receptor
T6 sequence (looked up) 1: T2 sequence (looked up) 1
T6 sequence (looked up) 2: T2 sequence (looked up) 2

rat calcitonin receptor [8] = target: T4, rat calcitonin receptor; test: IC50 on rat CTR divided by IC50 on rat amylin receptor (Assays VIII/VI)

Row | Binder | Ratio hCT/hAmylin binding [1] | IC50 [2] | IC50 (rat calcitonin receptor [3]) | Ratio rCT/rAmylin binding (rat calcitonin receptor [4]) | IC50 (rat calcitonin receptor [5]) | Ratio hCT/hAmylin binding [6] | IC50 [7] | Ratio rCT/rAmylin binding (rat calcitonin receptor [8])
1 | B1 | 35.6 | 2.07 nM | 94.5 nM | 45.6 | – | – | – | –
2 | B2 | 101 | 0.386 nM | 29.4 nM | 76.3 | – | – | – | –
3 | B3 | – | – | – | – | 112 nM | 69.7 | 0.558 nM | 201
